Results reported in PMC2847151 (Neurogenetics, 2009).

Test system: Mediator
Assay: Binding to Mediator upon transfection into HeLa cells
Details: wild-type vs mutant

Row | Molecule | binding to Mediator
1 | wildtype: wild-type MED25 protein (ARC92/ACID1); also as GAL4 fusion, full-length clone (1–754) (protein, UniProt Q71SY5 1-747, looked up, full-length also GAL4 fusion) MVPGSEGPARAGSVVADVVFVIEGTANLGPYFEGLRKHYLLPAIEYFNGGPPAETDFGGDYGGTQYSLVVFNTVDCAPESYVQCHAPTSSAYEFVTWLDGIKFMGGGGESCSLIAEGLSTALQLFDDFKKMREQIGQTHRVCLLICNSPPYLLPAVESTTYSGCTTENLVQQIGERGIHFSIVSPRKLPALRLLFEKAAPPALLEPLQPPTDVSQDPRHMVLVRGLVLPVGGGSAPGPLQSKQPVPLPPAAPSGATLSAAPQQPLPPVPPQYQVPGNLSAAQVAAQNAVEAAKNQKAGLGPRFSPITPLQQAAPGVGPPFSQAPAPQLPPGPPGAPKPPPASQPSLVSTVAPGSGLAPTAQPGAPSMAGTVAPGGVSGPSPAQLGAPALGGQQSVSNKLLAWSGVLEWQEKPKPASVDANTKLTRSLPCQVYVNHGENLKTEQWPQKLIMQLIPQQLLTTLGPLFRNSRMVQFHFTNKDLESLKGLYRIMGNGFAGCVHFPHTAPCEVRVLMLLYSSKKKIFMGLIPYDQSGFVNGIRQVITNHKQVQQQKLEQQQRGMGGQQAPPGLGPILEDQARPSQNLLQLRPPQPQPQGTVGASGATGQPQPQGTAQPPPGAPQGPPGAASGPPPPGPILRPQNPGANPQLRSLLLNPPPPQTGVPPPQASLHHLQPPGAPALLPPPHQGLGQPQLGPPLLHPPPAQSWPAQLPPRAPLPGQMLLSGGPRGPVPQPGLQPSVMEDDILMDLI | bound indistinguishably to Mediator
2 | mutant MED25: MED25 protein carrying the p.A335V mutation; also as GAL4 fusion, full-length clone (1–754) (protein, UniProt Q71SY5 1-747, looked up, variant A335V, full-length also GAL4 fusion) MVPGSEGPARAGSVVADVVFVIEGTANLGPYFEGLRKHYLLPAIEYFNGGPPAETDFGGDYGGTQYSLVVFNTVDCAPESYVQCHAPTSSAYEFVTWLDGIKFMGGGGESCSLIAEGLSTALQLFDDFKKMREQIGQTHRVCLLICNSPPYLLPAVESTTYSGCTTENLVQQIGERGIHFSIVSPRKLPALRLLFEKAAPPALLEPLQPPTDVSQDPRHMVLVRGLVLPVGGGSAPGPLQSKQPVPLPPAAPSGATLSAAPQQPLPPVPPQYQVPGNLSAAQVAAQNAVEAAKNQKAGLGPRFSPITPLQQAAPGVGPPFSQAPAPQLPPGPPGVPKPPPASQPSLVSTVAPGSGLAPTAQPGAPSMAGTVAPGGVSGPSPAQLGAPALGGQQSVSNKLLAWSGVLEWQEKPKPASVDANTKLTRSLPCQVYVNHGENLKTEQWPQKLIMQLIPQQLLTTLGPLFRNSRMVQFHFTNKDLESLKGLYRIMGNGFAGCVHFPHTAPCEVRVLMLLYSSKKKIFMGLIPYDQSGFVNGIRQVITNHKQVQQQKLEQQQRGMGGQQAPPGLGPILEDQARPSQNLLQLRPPQPQPQGTVGASGATGQPQPQGTAQPPPGAPQGPPGAASGPPPPGPILRPQNPGANPQLRSLLLNPPPPQTGVPPPQASLHHLQPPGAPALLPPPHQGLGQPQLGPPLLHPPPAQSWPAQLPPRAPLPGQMLLSGGPRGPVPQPGLQPSVMEDDILMDLI | bound indistinguishably to Mediator
